Key:
[1] = target: σ^s (RpoS), His-tagged (Escherichia coli) (UniProt P13445); experiment: pull-down
[2] = target: σ^s (RpoS), His-tagged (Escherichia coli) (UniProt P13445); experiment: SEC
σ^s (RpoS), His-tagged = σ^s (RpoS), His-tagged (Escherichia coli, UniProt P13445 1-330); experiment: pull-down
Chain of σ^s (RpoS), His-tagged (P13445 whole entry): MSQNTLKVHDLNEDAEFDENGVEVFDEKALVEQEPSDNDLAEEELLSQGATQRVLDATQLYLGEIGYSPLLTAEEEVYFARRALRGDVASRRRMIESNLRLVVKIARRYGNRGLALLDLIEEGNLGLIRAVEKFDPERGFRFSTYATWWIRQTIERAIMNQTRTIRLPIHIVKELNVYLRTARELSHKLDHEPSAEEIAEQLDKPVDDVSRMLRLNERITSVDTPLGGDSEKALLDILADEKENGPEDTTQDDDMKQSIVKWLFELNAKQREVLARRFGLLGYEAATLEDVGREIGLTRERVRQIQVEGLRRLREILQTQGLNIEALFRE

Chain of σ^s (RpoS), His-tagged (Escherichia coli) (P13445 whole entry): as above

## RssB (wild type, full length) (from UniProt P0AEV1 1-337) (natural protein)
[1]
  fold increase in pull-down efficiency with beryllofluoride against without: 5 fold

## RssB∼P (RssB phosphorylated with acetyl phosphate) (from UniProt P0AEV1 1-337) (natural protein)
[2]
  stoichiometry N: 1 σ^s:RssB

B1: RssB^F129A;S131A (natural protein, Escherichia coli)
chain: MTQPLVGKQILIVEDEQVFRSLLDSWFSSLGATTVLAADGVDALELLGGFTPDLMICDIAMPRMNGLKLLEHIRNRGDQTPVLVISATENMADIAKALRLGVEDVLLKPVKDLNRLREMVFACLYPSMANARVEEEERLFRDWDAMVDNPAAAAKLLQELQPPVQQVISHCRVNYRQLVAADKPGLVLDIAALSENDLAFYCLDVTRAGHNGVLAALLLRALFNGLLQEQLAHQNQRLPELGALLKQVNHLLRQANLPGQFPLLVGYYHRELKNLILVSAGLNATLNTGEHQVQISNGVPLGTLGNAYLNQLSQRCDAWQCQIWGTGGRLRLMLSAE
σ^s (RpoS), His-tagged
  percent of WT binding: ~50 % of WT

— PMC10755785 (The Journal of Biological Chemistry, 2023)
